The labels stand for the following.
B1: PA430 human IgG (antibody, V domains shown)
VH: QMQLVESGGGVVQPGKSLRLSCAASGFTFSYHAMHWVRQAPGKGLEWLAAMSHDGTETSYADSVKGRITISRDNSKSALYLQMNSLRAEDTAVYYCTAEGLRSNGGAFETWGRGTMITVSS
VL: SYELTQPPSVSVAPGQTARITCSGDVLPKHYAYWYQQKPGQAPVLVIYKDSERPSGIPERFTGSSSGTKVTLTISGVRAEDEADYYCQSVDSSDTSVVFGGGTKLTVLG
notes: Converted from the phage antibody to whole human IgG with vectors pIgGHD-6A6Hvy and pIgGLD-6A6Lgt and expressed in HEK293T
B2: PD52 human IgG (antibody, V domains shown)
VH: QMQLVQSGGGVVQPGGSLRLSCVGSGFSFDDYAMHWVRQAPGKGLEWVSGISWNSGAIGYADSVKGRFTVSRDNSKNSLYLQMNSLRAEDTAVYYCATASRGLGDAFDIWGQGTMVTVSS
VL: B1 VL with A13S, S51T, T62S, K69T, R78Q, S92N
notes: Whole human IgG
B3: PD10 human IgG (antibody, V domains shown)
VH: QVQLVESGGGLVQPGGSLRLSCAASGFTFDEHAMHWVRQAPGKGLQWVSGINWNSGKTGYADSVKGRFTISRDNSKNSLYLQMNSLRAEDTAVYYCTRPGEDTGGGFDIWGQGTMITVSS
VL: NFMLTQPASVSGSPGQSITISCTGSSSDVGGYNYVSWYQQHPGKAPQLIIYDVTKRPSGVSNRFSGSKSGNSASLTISGLQAEDEADYYCSSYSSSTFYVFGTGTKVTVLG
notes: Whole human IgG
B4: PD27 human IgG (antibody, V domains shown)
VH: B3 VH
VL: B1 VL with P8L, A13S, P28A, K29D, A32S, I47M, T62S, K69T, R78Q
notes: Whole human IgG

The results in this text go back to patent US20170327585A1 (PHARMABCINE, published 2017).

Where a chain is given by its changes, count along the chain named.

Sequence of BSA (P02769 25-607 limits assumed): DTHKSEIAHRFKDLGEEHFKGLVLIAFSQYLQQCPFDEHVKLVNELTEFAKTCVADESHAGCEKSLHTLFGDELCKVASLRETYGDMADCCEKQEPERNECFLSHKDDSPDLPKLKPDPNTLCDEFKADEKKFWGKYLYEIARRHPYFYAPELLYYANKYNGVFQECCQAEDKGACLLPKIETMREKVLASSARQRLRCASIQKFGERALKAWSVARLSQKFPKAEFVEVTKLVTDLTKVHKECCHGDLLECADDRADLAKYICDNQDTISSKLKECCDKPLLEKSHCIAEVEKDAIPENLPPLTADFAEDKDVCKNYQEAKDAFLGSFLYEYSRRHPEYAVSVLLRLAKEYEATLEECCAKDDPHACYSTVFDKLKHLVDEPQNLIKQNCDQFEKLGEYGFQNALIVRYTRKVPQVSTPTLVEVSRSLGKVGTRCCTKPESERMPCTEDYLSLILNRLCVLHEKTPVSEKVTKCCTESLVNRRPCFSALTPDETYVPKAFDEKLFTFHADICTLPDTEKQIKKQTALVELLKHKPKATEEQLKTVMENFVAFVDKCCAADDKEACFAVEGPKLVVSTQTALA

In this experiment the target is BSA (UniProt P02769 25-607). Briefly: ELISA, coated BSA, anti-human IgG HRP. Here is the method:
ELISAs were performed to identify antigen-specific binding capacity of clones converted to IgG EGFRvIII peptide, […] peptide and BSA were coated on […] 96 well plates at 37° C. for 2 hours. Thereafter, after blocking the uncoated portion with 3% skim milk/0.05% PBST, 1 μg/ml IgG was added to the plate and reacted at 37° C. for 1 hour. Anti-human IgG HRP (pierce, USA) was diluted in 1:3000 and reacted for 1 hour. Next, the TMB substrate (BD, USA) was treated for 10 minutes for color development, and the reaction was stopped by treating with 2N H2SO4. As to the color developed ELISA, the absorbance was measured at 450 nm-650 nm using a Sunrise ELISA reader (TECAN, Switzerland).
On the technique in general: An ELISA detects its analyte on a solid surface through an enzyme-linked reagent.
With B1, the binding result was “no binding (tested: 1 µg/ml IgG)”. The result for B2 reads “no binding (tested: 1 µg/ml IgG)”. Consider B3, for which the binding result is “no binding (tested: 1 µg/ml IgG)”. For B4, the binding result is “no binding (tested: 1 µg/ml IgG)”.
